Results taken from the supplement of paper PMC12764529.
± gives the half width of the 95% confidence interval.

How the values were obtained:
[1] = folding stability dG unfold from chymotrypsin proteolysis; higher = more stable
Outline: (§1)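 How resistant each design was to proteolysis was captured as K50, inferred by Bayesian fitting of sequencing counts. Unfolding free energy was then derived relative to a sequence-predicted unfolded-state K50 and a shared folded-state K50, per protease or combined. Digestion used trypsin and chymotrypsin at 11 threefold-diluted concentrations plus a no-protease condition, on mini-proteins under 80 residues without cysteine in a PA-tagged cDNA display construct. Designs were kept only when AlphaFold2 dimer inter-PAE was above 15.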

[2] = folding stability dG unfold from trypsin proteolysis; higher = more stable
Outline: as §1

[3] = folding stability dG unfold (combined trypsin and chymotrypsin); higher = more stable
Outline: as §1

Sequence	folding stability dG unfold [1] [kcal/mol]	folding stability dG unfold [2] [kcal/mol]	folding stability dG unfold [3] [kcal/mol]
SAGNKIEIEPVNYEPMPNGYYRVTARVTIENPNNKKPWDIDVEAYYPMDPNGQPMNVDEIAKEAIKKIFSAG [r5_604_TrROS]	1.36 ± 0.11	0.624 ± 0.098	1.07 ± 0.24
SAGNPVLLKRPFIDPENGEPVYELTLFDPESNIVTTLFFNSDGKVIAVAVAYVPPETDEVDIELSVFDGSAG [r5_747_TrMRF]	1.36 ± 0.099	1.52 ± 0.053	1.47 ± 0.062
SAGNRYEVNLTYMYPPDDPGLIEKIKKILRKLGWEIEKVKEQRMPDNKMRMVTHKIRIPGLPPEALKAFSAG [r14_956_TrROS]	1.27 ± 0.23	0.918 ± 0.16	1.31 ± 0.37
SAGNVIVVVNPETGEVVVVSFDELVRIVAVSSKTLVPEVRDVPRDKVLDFIKEAFPGPVEILEIKPAPVSAG [r5_519_TrMRF]	1.22 ± 0.05	1.02 ± 0.043	1.19 ± 0.053
SAGPADPGFLGTRTVPHPDGVVTVDVYRFAGTRVLITITLPDSTVPVEDPVESEEEALAFADAVVAEVGLSA [r9_758_JUSTAS]	2.27 ± 0.037	0.637 ± 0.081	1.66 ± 0.1
SAGPDKPLKIESIGGKFNPDNGVISIKLKVEDPGDGKTYDYTMQFPVRDPDNGKPYMFTFPMRIKVPDSAGG [r19_129_TrROS]	0.647 ± 0.16	0.645 ± 0.072	0.607 ± 0.13
SAGPEKVREAARELFEKLNLPIVSEEAIEVGDAVLIRFEIPEIGTKITILAPVFENGEIKVIVKIEPVSSAG [r5_888_TrMRF]	1.58 ± 0.032	1.71 ± 0.069	1.65 ± 0.091
SAGPIIIRVKYPDGRQIDINPENPWQIQIWDPGGKKETYPFDSNEDAKDKVVDWLGEEHGWPIKDVEIVSAG [r5_119_TrROS]	0.35 ± 0.059	0.373 ± 0.043	0.403 ± 0.11
SAGPKIRTIIKEILKELNPDRPIEIHTHPDGFIIIVNPDDGRFIMIKIDPDGDIKISEVVPAEEMKKMMSAG [r5_852_TrROS]	1.17 ± 0.058	1.84 ± 0.033	1.49 ± 0.13
SAGPKKKVEIDVHIMIPFKSWEDRELMLYYARKFAPYIARELAKQNGLPPGVDEVKVDVNIMIIPPGQMSAG [r5_436_TrROS]	3.87 ± 0.04	2.84 ± 0.12	3.34 ± 0.12
SAGPKTLLLNIPPGEDVELLIGDKPYRIKVDPERLIGYAFDPETGEIFLIFHDPEKPIALITVFPSPPLSAG [r5_302_TrMRF]	2.46 ± 0.11	1.56 ± 0.042	2.18 ± 0.12
SAGPPEQKIKIKWYPPDDGQPQEIPGPVDDIKDILDKLGWPVTNIETDPDDNEVEIWVPFPNWWLHIKISAG [r5_521_TrROS]	1.79 ± 0.069	0.884 ± 0.036	1.53 ± 0.12
SAGPPGMRMVPFTIELPGKKIEIHVMEYPNGPPQYMVEIEDPNGKPKWTIMVTGPEARDLLEKAGIKFSAGG [r19_90_TrROS]	1.23 ± 0.14	0.438 ± 0.1	1.01 ± 0.1
SAGPPGQPVKTIEIMIEFPPGQTMEEARERVEEIADEIQRKFPKIKSIDVDVQKDDDTYYVNANITIPYSAG [r5_446_TrROS]	0.372 ± 0.19	0.848 ± 0.048	0.688 ± 0.19
SAGPPKTRTVMFPPEDIPKILEELKKLPPDITIHFPDPDPGNWFMIEVTDDEIKIENPGNGEERTIPISAGG [r19_154_TrROS]	0.252 ± 0.11	-0.712 ± 0.24	0.0412 ± 0.16
SAGPPPWMVIRIPFWVKVTPDDGIITIEFKIEIGNKEFKIKITIPIPPELADAPPGETIPIPIWIFIRPSAG [r5_714_TrROS]	5.13 ± 0.062	3.99 ± 0.16	4.81 ± 0.13
SAGPSLEVEVERLPGPYVRITARYSRDVPVEVLVEELRAAAPVEVRVEEDPERDFVTVVAVLPLAPDAGSAG [r5_742_TrMRF]	1.46 ± 0.069	1.28 ± 0.031	1.46 ± 0.08
SAGPTIMIPMPPKESLEEAVEKAIEWIREFFPDNLKPGKKIKIFVHVWDPDNGKQYWVTIEIPIPKGELSAG [r5_916_TrROS]	3.62 ± 0.057	2.48 ± 0.22	3.19 ± 0.25
SAGPVLYRVTITVEVSSSGEKGKTLTLEFLVPPSVSGEEVRDRVLALLKAQGYKVEKITVTVTPLPSSASAG [r14_979_JUSTAS]	5.36 ± 0.13	4.03 ± 0.21	5.27 ± 0.14
SAGPVVLSPDDTVKIGKKELTFFSDGTVSVKYPDGTGESITVTVDPSSGNITLTETFTEPETGTTPVENSAG [r5_33_JUSTAS]	1.48 ± 0.075	0.473 ± 0.15	1.17 ± 0.16
SAGPVVTLTVTVEIEVDGVRVEVTVTATLLPDGTVVITATVKVTLPNGETKTVTVTLTFPPGVDEVVLTSAG [r5_829_TrROS_Hall]	3.42 ± 0.18	2.62 ± 0.15	3.06 ± 0.25

Sequence	folding stability dG unfold [1] [kcal/mol]	folding stability dG unfold [2] [kcal/mol]	folding stability dG unfold [3] [kcal/mol]
SAGPWITIPFKVKSLEEARNIIREIAQTFGLPMKVEDIQVTEDQLEKNREPGDPIRITVRYPNGREIEISAG [r5_503_TrROS]	1.69 ± 0.11	1.64 ± 0.065	1.64 ± 0.11
SAGQPGKPIRKYTFDLPDDDKITVEVYMYPDGNMMIKIEDNNGKERNIMIPANDLQNMPIEDLVKWLRSAGG [r19_47_TrROS]	3.57 ± 0.062	2.73 ± 0.12	3.33 ± 0.36
SAGSAEELKEKIREELRERLAKELGYPNIEIKKVEVLKYDPETGTITVKVELKLPDGKELTLTITVPVKSAG [r5_20_JUSTAS]	3.63 ± 0.29	4.27 ± 0.34	3.9 ± 0.41
SAGSASSIKPISSTLDVRTDPETGKPVKATVYTYVLPSDGSSKQVPVPLSKKEPINLSPSDSYVTETRESAG [r5_950_JUSTAS]	-0.274 ± 0.27	-0.586 ± 0.17	-0.361 ± 0.22
SAGSGPGETKLVEEVEIDPVGPIKDSNGNPRPIKVVTKKLVEVTILEDGTVEKKVLETVVETLPPDVPLSAG [r5_132_JUSTAS]	-0.575 ± 0.1	-0.498 ± 0.23	-0.662 ± 0.51
SAGSGVILRTPEGKYVPLSALSEEEIKTAIEDPLSPAPPVTVEVTVTSVRLPVPRTVTTTEVVVTVLGSAGG [r19_232_JUSTAS]	0.233 ± 0.19	-0.00526 ± 0.21	0.115 ± 0.19
SAGSIEAAVEALEKELREKGYKVSVELVETDPSDPNRLNLVIRVTVEGFSPESKPLGKKEETYVIEGGSAGG [r19_418_JUSTAS]	1.45 ± 0.069	1.12 ± 0.031	1.28 ± 0.14
SAGSIPELIREAFPSKVDRVEVTTEKLPNGTTKTTIKVYVDDPEVAERLAKEINELSGEPLENLTVTEESAG [r5_542_JUSTAS]	0.981 ± 0.039	0.0676 ± 0.11	0.652 ± 0.13
SAGSITIPIDDPEEMKDQLKNIAENFGMSNQDAEQFKDQLKENIEIHRDGDRWYITIQPPPPPDPGQPPSAG [r5_717_TrROS]	-0.145 ± 0.55	0.51 ± 0.15	-0.121 ± 0.47
SAGSITITIETLPDGTIRITIPYTSEEEAKKVAEEVAKEIAEKLGEEVIKFEVTPEDDDTLILTIPIKKSAG [r5_772_JUSTAS]	1.81 ± 0.092	1.15 ± 0.15	1.78 ± 0.28
SAGSITTTDGNISRSVTYIPGLNLYLVTSTYPTSVSVDLVTEEGGTLTTTPVSTTPLPLPASSLSTTASAGG [r19_328_JUSTAS]	-0.16 ± 0.15	0.207 ± 0.059	0.0781 ± 0.091
SAGSKEEKAKEIAKKLAEELKKKFPDLKIVEVKVVKIEYNKENKEIKITIYVYNKNGKLIKKIEITLPSAGG [r19_53_TrROS_Hall]	4.63 ± 0.11	3.58 ± 0.2	4.38 ± 0.18
SAGSKELVIVEKDEPVEGETLDYTNGKKKKFPKKVPVVKEIVLPKNSPEAEKIAKELSPPNVKVEILAKSAG [r5_468_JUSTAS]	-0.322 ± 0.11	-1.08 ± 0.81	-0.617 ± 0.32
SAGSMEALRALAEELAAEIAAAARAAGREVEVDITEVRPGEVRIRVTTTPPGGERTVEDIEIALPEERLSAG [r5_994_JUSTAS]	1.82 ± 0.026	0.934 ± 0.018	1.48 ± 0.034
SAGSMEPGEVLNVTMTFYDTSGNKLGTVNFTFTDEEEAKKKIEELAKEIKEKLNKNVKVTVEINKSPSLSAG [r5_232_JUSTAS]	4.59 ± 0.23	3.5 ± 0.25	4.76 ± 0.78
SAGSMLSVEEVEVTYNNPETGTPATIKLTVPVFYDPVTGRVEVEVEVEPSPEVPEEVAKEIAEKVKEKRSAG [r14_152_JUSTAS]	0.494 ± 0.066	-1.26 ± 0.95	-0.0138 ± 0.35
SAGSMSFELTVDYEKLPDGTYRVRATITIYDPNNNNPLKTVDFEGEATSEEEAEARARARAEEVKEAASAGG [r19_255_JUSTAS]	2.942 ± 0.023	1.84 ± 0.078	2.69 ± 0.17
SAGSMVLTEDKEFEVDYVLPDGTRLTEPVKVKVKTTTVFLKNNSSLVLTFTTVTLTDPKGNKVTFSGSVSAG [r5_257_JUSTAS]	2.969 ± 0.018	2.31 ± 0.074	2.7 ± 0.1
SAGSPLTLSEKTSYDPSTGVTTRTFTFPDGTTRTTATVTVPGTGTLLTSTDFTQSPGTLTQSSGVAPLSAGG [r19_394_JUSTAS]	0.706 ± 0.031	0.392 ± 0.019	0.616 ± 0.025
SAGSPVVIKVSKVDSSGNWTLLEEIPIPPSEVSGVELVGDSLKILPPGSGGSYTFTIENSTVTVSIEESAGG [r19_408_JUSTAS]	1.27 ± 0.084	0.465 ± 0.038	0.933 ± 0.06
SAGSRVLTLVFEIPGRPEVVENLPEDVVLPDGARLYRDGERLLLVVEREVPSLPVLDADGRPVGPELLSAGG [r19_148_TrMRF]	1.11 ± 0.056	0.4 ± 0.027	0.85 ± 0.039
